Reference: patent US20170192000A1 (Hoffmann-La Roche, published 2017)

Target: T1, Human li p10 (human)
T1 construct: also called Ii p10; li p10 peptide
T1 chain: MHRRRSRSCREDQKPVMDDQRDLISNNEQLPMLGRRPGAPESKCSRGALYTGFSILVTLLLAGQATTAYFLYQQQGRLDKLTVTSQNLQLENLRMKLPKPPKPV
Assay: flow cytometry on fixed and permeabilised human PBMC treated with Cathepsin S inhibitor 1
Method: FIG. 1: Detection of Ii p10 expression on B cells and T cells using a neoepitope antibody. PBMCs isolated from blood donation of a healthy donor (R213) were incubated for 20 h with increasing concentrations of Cathepsin S inhibitor 1 or vehicle. Ii p10 detection on B cells (CD20+) and T cells (CD3+) was determined by flow cytometry using a different neoepitope antibody 7B8 (black).

binding result: binds
B1: anti li p10 antibody 7B8 (antibody, V domains shown)
VH: QSLEESGGRLVTPGTPLTLTCTVSGIDLSTYAMTWVRQAPGKGLEWIGIIYNNGVVVYASWAKGRFTISKTSTTVDLKMTSPTTEDTATYFCCRGYYDGSVNVWGPGTLVTVSL
VL: QVLTQTASSVSAVVGGTVTISCQSSQSVYNDNVLSWFQQKPGQPPKLLIYLASTLASGVPSRFSGSGSGTQFTLTISDLECDDAAAYYCLGGYTGDMYAFGGGTEVVV
notes: Used unlabeled at 10 ug/mL and detected with PE-conjugated goat anti-rabbit IgG; also called anti-p10 antibody
